Data taken from article PMC8511391 (2021).
Ends that are not written are not given here.

Columns and labels:
[1] = molecular target: T1, Kv1.3 (Homo sapiens, UniProt P22001); experiment: patch-clamp dose-response
[2] = molecular target: T2, Kv1.2 (Homo sapiens, UniProt P16389); experiment: patch-clamp dose-response
[3] = molecular target: T1, Kv1.3; experiment: patch-clamp kinetics (koff/kon)
[4] = molecular target: T2, Kv1.2; experiment: patch-clamp kinetics (koff/kon)

T1 sequence (P22001 whole entry): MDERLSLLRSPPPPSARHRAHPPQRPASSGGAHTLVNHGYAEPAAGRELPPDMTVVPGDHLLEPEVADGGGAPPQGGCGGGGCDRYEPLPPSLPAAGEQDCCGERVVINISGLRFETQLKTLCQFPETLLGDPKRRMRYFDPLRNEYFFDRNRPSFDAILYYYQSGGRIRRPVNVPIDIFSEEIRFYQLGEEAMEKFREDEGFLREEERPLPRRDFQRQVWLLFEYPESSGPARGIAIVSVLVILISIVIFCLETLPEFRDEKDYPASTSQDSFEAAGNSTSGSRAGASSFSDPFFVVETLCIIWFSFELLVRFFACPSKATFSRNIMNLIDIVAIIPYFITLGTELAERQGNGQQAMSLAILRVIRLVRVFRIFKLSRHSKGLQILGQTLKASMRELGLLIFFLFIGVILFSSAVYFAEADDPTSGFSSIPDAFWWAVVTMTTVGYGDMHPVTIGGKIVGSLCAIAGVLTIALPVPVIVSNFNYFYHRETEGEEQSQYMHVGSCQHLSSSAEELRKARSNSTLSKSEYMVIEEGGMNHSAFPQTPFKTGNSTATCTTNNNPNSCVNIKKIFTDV
T2 sequence (P16389 whole entry): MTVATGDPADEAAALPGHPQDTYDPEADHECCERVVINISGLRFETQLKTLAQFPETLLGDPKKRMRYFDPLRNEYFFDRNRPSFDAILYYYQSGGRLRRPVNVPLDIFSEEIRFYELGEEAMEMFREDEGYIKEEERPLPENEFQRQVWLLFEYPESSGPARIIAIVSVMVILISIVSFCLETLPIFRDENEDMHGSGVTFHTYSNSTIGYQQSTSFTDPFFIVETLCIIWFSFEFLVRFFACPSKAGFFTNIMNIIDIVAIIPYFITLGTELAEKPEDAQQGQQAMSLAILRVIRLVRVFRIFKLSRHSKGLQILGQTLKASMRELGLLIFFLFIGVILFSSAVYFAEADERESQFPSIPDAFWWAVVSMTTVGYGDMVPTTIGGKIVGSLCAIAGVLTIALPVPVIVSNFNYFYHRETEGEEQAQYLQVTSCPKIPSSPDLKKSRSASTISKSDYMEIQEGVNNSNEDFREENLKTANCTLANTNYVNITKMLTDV

| Binder | Kd [1] [nM] | Kd [2] [nM] | Kd [3] [nM] | Kd [4] [nM] |
| --- | --- | --- | --- | --- |
| {Glu-Phe-H2N-H2N-H2N-H2N-H2N-H2N}-LQIEGRTIINVKCTSPKQCLPPCKAQFGQSAGAKCMNGKCKCYPH (not fully specified; ends and bridges not checked) [Margatoxin (TrMgTx)] | 0.086 | 0.064 | 0.0839 | 0.0623 |
| TIINVKCTSPKQCLPPCKAQFGQSAGAKCMNGKCKCYPH [Margatoxin (UrMgTx)] | 0.05 | 0.014 | 0.0522 | 0.015 |
